# In US20250099379A1, “NEW SYSTEM FOR THE TOPICAL PHARMACOLOGICAL RELEASE OF AN ACTIVE INGREDIENT” (UNIVERSITÀ DEGLI STUDI DI PADOVA, priority 2022, published 2025):
# Assays:
# [1] = Release of BSA-FITC from wet silica sol-gel suspended in 3% HPMC hydrogel or buffer (dialysis tubes); type: physicochemical; settings: BSA-FITC in silica hydrogel (SiO2 8%), equal volume of release buffer or 3% HPMC; PBST+0.1% BSA at 37° C.
# Procedure: In a preliminary test it was evaluated if the use of hydrogel of 3% w/v HPMC as diluent for the suspension of silica nanoparticles influences the release of a protein incorporated therein. To this purpose, preparations constituted by silica hydrogel having incorporated the model protein BSA-FITC, suspended in an equal volume of release buffer or t 3% HPMC, were inserted in dialysis tubes (cut-off 100 KDa) and immersed in PBST+0.1% BSA at 37° C. At programmed time points the content of BSA-FITC was quantified in the acceptor solution by fluorescence spectroscopy.
# [2] = Release of SB3 from wet silica sol-gel into buffer (ELISA quantification); type: physicochemical; settings: wet silica sol-gel (8% SiO2 w/w), crushed manually; gels loaded at SB3 5 and 50 μg/mL; immersion in buffer at 37
# Procedure: 200 μl of the prepared product containing SB3 in silica hydrogel were suspended in 10 mL of phosphate buffer 100 mM, 0.05% Tween 20, 0.1% BSA, pH 6.0 and incubated at 37° C. under slight stirring. At defined time moments (0 h, 5 h and 24 h) the sample was centrifuged (1390 g) and a small portion of supernatant (250 μl) was removed by titration of SB3 and replaced with fresh buffer. The compound was then re-suspended in the supernatant by a slight vortex and the incubation at 37° C. was continued until the subsequent moment. The concentration of SB3 in the supernatants was quantified by sandwich ELISA (kit HEPA Lisa, Xeptagen S.p.A, Vega Park, Venice) by following the manufacturer's instructions. […] After washing, the concentration of SB3 was detected by incubation with 100 μL of anti-SB3 secondary Ab conjugated with streptavidin HRP (0.5 μg/mL). The plate was developed with a solution of substrate 3,3′,5,5′-tetramethylbenzidin (TMB) ready for use. The reaction was interrupted with 1 mol/L of HCl (100 μL) and the absorbance at 450 nm was measured on a reader of microplates (Victor×3; Perkin Elmer, Waltham, MA, USA). […]
# [3] = test system: MDCK cells; experiment: Scatter assay on MDCK cells; type: cell-based, canine; settings: solution of release from gel at SB3 50 μg/mL; similar to recombinant SB3 positive control (CTR+)
# Procedure: The results were represented graphically by tracing the ratio between the amount of protein released in each time point (Mt) and the total protein (Mtot) incorporated in function of time. The released functional capability of SB3 was verified by scatter assay, as previously reported (Quarta et al. J Pathol 2010; 221:343-356). In detail, canine kidney cells Madin-Darby (MDCK) (5×10^3 cells/well), were treated with two different dilutions of SB3 released by the wet silica microspheres for 5 and 24 hours. The cells were fixed in 4% formaldehyde, coloured with blue solution of Coomassie and the scattering effect was analysed by using the Axiovert 200M microscope (Carl Zeiss Microscopy GmbH, Germania). As positive control, SB3 recombinant at 200 ng/ml was used.
Molecule,Release profiles in presence or absence of HPMC hydrogel [1],"Mechanism of SB3 release (Mt/Mtot % vs square root of time, linear correlation) [2]",Scattering of cohesive cell colonies [3]
BSA-FITC: model protein BSA-FITC incorporated in silica hydrogel,almost superimposable,,
"SB3: human SerpinB3 protease inhibitor protein, produced recombinantly; incorporated in wet silica sol-gel (8% SiO2) (protein, UniProt P29508 1-390, looked up) Serpin B3: MNSLSEANTKFMFDLFQQFRKSKENNIFYSPISITSALGMVLLGAKDNTAQQIKKVLHFDQVTENTTGKAATYHVDRSGNVHHQFQKLLTEFNKSTDAYELKIANKLFGEKTYLFLQEYLDAIKKFYQTSVESVDFANAPEESRKKINSWVESQTNEKIKNLIPEGNIGSNTTLVLVNAIYFKGQWEKKFNKEDTKEEKFWPNKNTYKSIQMMRQYTSFHFASLEDVQAKVLEIPYKGKDLSMIVLLPNEIDGLQKLEEKLTAEKLMEWTSLQNMRETRVDLHLPRFKVEESYDLKDTLRTMGMVDIFNGDADLSGMTGSRGLVLSGVLHKAFVEVTEEGAEAAAATAVVGFGSSPTSTNEEFHCNHPFLFFIRQNKTNSILFYGRFSSP",,takes place through a diffusion process,induced the 20 time-depending scattering of strictly cohesive colonies of MDK cells
